Data as given in paper doi:10.1101/2024.06.17.599268 (bioRxiv, 2024).

Tests used:
[1] = molecular target: Mical1 MO-CH-LIM (residues 1-781) (human) (UniProt Q8TDZ2); test: ITC
[2] = molecular target: T1, Mical1 bMERB domain (residues 918-1067) (human, UniProt Q8TDZ2 918-1067); test: ITC
T1 sequence: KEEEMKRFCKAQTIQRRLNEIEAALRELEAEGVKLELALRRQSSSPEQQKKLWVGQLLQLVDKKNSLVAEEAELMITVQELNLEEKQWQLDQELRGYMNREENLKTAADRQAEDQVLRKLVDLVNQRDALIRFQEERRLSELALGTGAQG

[3] = molecular target: T2, Rab8a_(1-176) (human, UniProt P61006 1-176); test: SEC
T2 sequence: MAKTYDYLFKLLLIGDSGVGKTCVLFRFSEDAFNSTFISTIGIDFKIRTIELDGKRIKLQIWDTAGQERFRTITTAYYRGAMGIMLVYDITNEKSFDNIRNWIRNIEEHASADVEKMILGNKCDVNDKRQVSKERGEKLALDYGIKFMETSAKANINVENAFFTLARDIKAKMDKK

[4] = molecular target: T3, Mical1 MO-CH-LIM (residues 1-781) (human, UniProt Q8TDZ2 1-781); test: ITC
T3 sequence: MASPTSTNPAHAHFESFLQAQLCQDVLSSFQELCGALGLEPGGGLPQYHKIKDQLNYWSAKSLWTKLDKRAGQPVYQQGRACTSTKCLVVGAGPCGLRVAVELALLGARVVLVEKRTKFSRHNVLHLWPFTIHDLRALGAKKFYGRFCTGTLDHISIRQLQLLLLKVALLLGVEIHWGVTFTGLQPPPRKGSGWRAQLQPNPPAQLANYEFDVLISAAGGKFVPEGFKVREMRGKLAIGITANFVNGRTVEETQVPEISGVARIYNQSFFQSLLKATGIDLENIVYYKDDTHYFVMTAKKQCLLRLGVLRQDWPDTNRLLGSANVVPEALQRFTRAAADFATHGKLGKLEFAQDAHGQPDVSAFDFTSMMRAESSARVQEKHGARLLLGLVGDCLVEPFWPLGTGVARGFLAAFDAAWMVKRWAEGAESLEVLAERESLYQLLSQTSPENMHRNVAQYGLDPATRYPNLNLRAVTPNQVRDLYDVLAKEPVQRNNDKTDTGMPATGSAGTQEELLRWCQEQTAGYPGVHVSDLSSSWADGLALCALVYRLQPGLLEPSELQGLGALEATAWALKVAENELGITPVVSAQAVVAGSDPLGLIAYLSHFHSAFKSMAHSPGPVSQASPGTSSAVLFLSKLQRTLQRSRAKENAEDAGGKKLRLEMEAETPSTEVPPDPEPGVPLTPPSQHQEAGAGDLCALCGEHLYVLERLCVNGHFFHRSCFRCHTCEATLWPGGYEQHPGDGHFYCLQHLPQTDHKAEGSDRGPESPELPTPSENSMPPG

[5] = molecular target: T2, Rab8a_(1-176); test: ITC

Molecule: Mical1 bMERB domain (residues 918-1067) (from UniProt Q8TDZ2 918-1067) (domain or fragment)
- Kd [1]: 2700 nM
- stoichiometry N [1]: 1

B1: Rab15_(1-176) (natural protein)
chain: MAKQYDVLFRLLLIGDSGVGKTCLLCRFTDNEFHSSHISTIGVDFKMKTIEVDGIKVRIQIWDTAGQERYQTITKQYYRRAQGIFLVYDISSERSYQHIMKWVSDVDEYAPEGVQKILIGNKADEEQKRQVGREQGQQLAKEYGMDFYETSACTNLNIKESFTRLTELVLQAHRKE
- KD of the high-affinity site (Ct-RBS2) [2]: 2.5 nM
- KD of the low-affinity site (Nt-RBS1) [2]: 2910 nM
- stoichiometry N [2]: 2

B2: bMERB K918A_E921A (domain or fragment)
chain: AEEAMKRFCKAQTIQRRLNEIEAALRELEAEGVKLELALRRQSSSPEQQKKLWVGQLLQLVDKKNSLVAEEAELMITVQELNLEEKQWQLDQELRGYMNREENLKTAADRQAEDQVLRKLVDLVNQRDALIRFQEERRLSELALGTGAQG
- binding result [3]: binds
- fold reduction in affinity against wild-type bMERB [4]: 2 fold

B3: bMERB_(L1047A_F1050A) (domain or fragment)
chain: KEEEMKRFCKAQTIQRRLNEIEAALRELEAEGVKLELALRRQSSSPEQQKKLWVGQLLQLVDKKNSLVAEEAELMITVQELNLEEKQWQLDQELRGYMNREENLKTAADRQAEDQVLRKLVDLVNQRDAAIRAQEERRLSELALGTGAQG
- binding result [3]: binds

B4: bMERB L974A_L975A (domain or fragment)
chain: KEEEMKRFCKAQTIQRRLNEIEAALRELEAEGVKLELALRRQSSSPEQQKKLWVGQAAQLVDKKNSLVAEEAELMITVQELNLEEKQWQLDQELRGYMNREENLKTAADRQAEDQVLRKLVDLVNQRDALIRFQEERRLSELALGTGAQG
- binding result [3]: binds
- fold reduction in affinity against wild-type bMERB [4]: 6 fold

B5: bMERB W970A (domain or fragment)
chain: KEEEMKRFCKAQTIQRRLNEIEAALRELEAEGVKLELALRRQSSSPEQQKKLAVGQLLQLVDKKNSLVAEEAELMITVQELNLEEKQWQLDQELRGYMNREENLKTAADRQAEDQVLRKLVDLVNQRDALIRFQEERRLSELALGTGAQG
- binding result [3]: binds
- fold reduction in affinity against wild-type bMERB [4]: 4 fold

B6: bMERB L977A_V978A (domain or fragment)
chain: KEEEMKRFCKAQTIQRRLNEIEAALRELEAEGVKLELALRRQSSSPEQQKKLWVGQLLQAADKKNSLVAEEAELMITVQELNLEEKQWQLDQELRGYMNREENLKTAADRQAEDQVLRKLVDLVNQRDALIRFQEERRLSELALGTGAQG
- binding result [3]: binds
- fold reduction in affinity against wild-type bMERB [4]: 6 fold

B7: bMERB R1044A (domain or fragment)
chain: KEEEMKRFCKAQTIQRRLNEIEAALRELEAEGVKLELALRRQSSSPEQQKKLWVGQLLQLVDKKNSLVAEEAELMITVQELNLEEKQWQLDQELRGYMNREENLKTAADRQAEDQVLRKLVDLVNQADALIRFQEERRLSELALGTGAQG
- binding result [3]: binds

B8: bMERB V1041A (domain or fragment)
chain: KEEEMKRFCKAQTIQRRLNEIEAALRELEAEGVKLELALRRQSSSPEQQKKLWVGQLLQLVDKKNSLVAEEAELMITVQELNLEEKQWQLDQELRGYMNREENLKTAADRQAEDQVLRKLVDLANQRDALIRFQEERRLSELALGTGAQG
- binding result [3]: binds

B9: bMERB L1011S (domain or fragment)
chain: KEEEMKRFCKAQTIQRRLNEIEAALRELEAEGVKLELALRRQSSSPEQQKKLWVGQLLQLVDKKNSLVAEEAELMITVQELNLEEKQWQLDQESRGYMNREENLKTAADRQAEDQVLRKLVDLVNQRDALIRFQEERRLSELALGTGAQG
- binding result [3]: binds

B10: bMERB F925A (domain or fragment)
chain: KEEEMKRACKAQTIQRRLNEIEAALRELEAEGVKLELALRRQSSSPEQQKKLWVGQLLQLVDKKNSLVAEEAELMITVQELNLEEKQWQLDQELRGYMNREENLKTAADRQAEDQVLRKLVDLVNQRDALIRFQEERRLSELALGTGAQG
- binding result [3]: binds

B11: bMERB L956S (domain or fragment)
chain: KEEEMKRFCKAQTIQRRLNEIEAALRELEAEGVKLELASRRQSSSPEQQKKLWVGQLLQLVDKKNSLVAEEAELMITVQELNLEEKQWQLDQELRGYMNREENLKTAADRQAEDQVLRKLVDLVNQRDALIRFQEERRLSELALGTGAQG
- binding result [3]: binds
- fold reduction in affinity against wild-type bMERB [4]: > 9 fold

B12: bMERB_(M992A_I993A) (domain or fragment)
chain: KEEEMKRFCKAQTIQRRLNEIEAALRELEAEGVKLELALRRQSSSPEQQKKLWVGQLLQLVDKKNSLVAEEAELAATVQELNLEEKQWQLDQELRGYMNREENLKTAADRQAEDQVLRKLVDLVNQRDALIRFQEERRLSELALGTGAQG
- binding result [3]: binds
- fold reduction in affinity against wild-type bMERB [4]: > 25 fold

B13: bMERB V1038A (domain or fragment)
chain: KEEEMKRFCKAQTIQRRLNEIEAALRELEAEGVKLELALRRQSSSPEQQKKLWVGQLLQLVDKKNSLVAEEAELMITVQELNLEEKQWQLDQELRGYMNREENLKTAADRQAEDQVLRKLADLVNQRDALIRFQEERRLSELALGTGAQG
- binding result [3]: binds

B14: bMERB I1048A (domain or fragment)
chain: KEEEMKRFCKAQTIQRRLNEIEAALRELEAEGVKLELALRRQSSSPEQQKKLWVGQLLQLVDKKNSLVAEEAELMITVQELNLEEKQWQLDQELRGYMNREENLKTAADRQAEDQVLRKLVDLVNQRDALARFQEERRLSELALGTGAQG
- binding result [3]: binds

B15: bMERB E939A (domain or fragment)
chain: KEEEMKRFCKAQTIQRRLNEIAAALRELEAEGVKLELALRRQSSSPEQQKKLWVGQLLQLVDKKNSLVAEEAELMITVQELNLEEKQWQLDQELRGYMNREENLKTAADRQAEDQVLRKLVDLVNQRDALIRFQEERRLSELALGTGAQG
- binding result [3]: binds
- fold reduction in affinity against wild-type bMERB [4]: > 5 fold

B16: bMERB_(V985A) (domain or fragment)
chain: KEEEMKRFCKAQTIQRRLNEIEAALRELEAEGVKLELALRRQSSSPEQQKKLWVGQLLQLVDKKNSLAAEEAELMITVQELNLEEKQWQLDQELRGYMNREENLKTAADRQAEDQVLRKLVDLVNQRDALIRFQEERRLSELALGTGAQG
- binding result [5]: binds
- fold reduction in affinity against wild-type bMERB [4]: 10 fold

B17: bMERB_(V1041A_I1048A) (domain or fragment)
chain: KEEEMKRFCKAQTIQRRLNEIEAALRELEAEGVKLELALRRQSSSPEQQKKLWVGQLLQLVDKKNSLVAEEAELMITVQELNLEEKQWQLDQELRGYMNREENLKTAADRQAEDQVLRKLVDLANQRDALARFQEERRLSELALGTGAQG
- binding result [4]: binds

B18: Rab10_(1-175) (natural protein)
chain: MAKKTYDLLFKLLLIGDSGVGKTCVLFRFSDDAFNTTFISTIGIDFKIKTVELQGKKIKLQIWDTAGQERFHTITTSYYRGAMGIMLVYDITNGKSFENISKWLRNIDEHANEDVERMLLGNKCDMDDKRVVPKGKGEQIAREHGIRFFETSAKANINIEKAFLTLAEDILRKTP
- KD of the high-affinity site (Ct-RBS2) [2]: 11 nM
- KD of the low-affinity site (Nt-RBS1) [2]: 3730 nM
- stoichiometry N [2]: 2
